Measurements taken from patent US20260242731A1.
Values belong to the substance of their own block, whether it stands above or below them.

Tests used:
CD19.1-Fc (Human) [1] = assay: on-bead anti-CD19-FITC (FMC63) binding assay
CD19.1-His (Human) [2] = molecular target: CD19.1-His (Human) (UniProt P15391); assay: on-bead fluorescence binding capacity assay; beads CD19.1-His (2.0 x moles)
CD19.1-Fc (Human) [3] = assay: on-bead fluorescence binding capacity assay; CD19.1-Fc coated beads
CD19.1-His (Human) [4] = molecular target: CD19.1-His (Human) (UniProt P15391); assay: on-bead fluorescence binding capacity assay; beads CD19.1-His (0.5 x moles)
CD19.1-Fc (Human) [5] = assay: on-bead ELISA, HRP-conjugated FMC63 titrated on CD19.1 Fc coated beads, absorbance at 450 nm, four-parameter logistic fit
CD19.1-Fc (Human) [6] = assay: direct ELISA, CD19 variant coated on plate (2D), FMC63-HRP titrated, OD450nm
[7] = molecular target: custom-produced WT etCD19-Fc (Human; human) (UniProt P15391); assay: on-bead fluorescence binding capacity assay; wtCD19 Fc coated beads
CD19.1-His (Human) [8] = molecular target: CD19.1-His (Human) (UniProt P15391); assay: on-bead ELISA, HRP-conjugated FMC63 titrated on CD19.1 His coated beads, absorbance at 450 nm, four-parameter logistic fit
CD19.1-His (Human) [9] = molecular target: CD19.1-His (Human) (UniProt P15391); assay: on-bead fluorescence binding capacity assay; beads CD19.1-His (5.0 x moles)
CD19.1-Fc (Human) [10] = assay: on-bead fluorescence binding capacity assay; beads CD19.1-Fc (5.0 x moles)
CD19.1-His (Human) [11] = molecular target: CD19.1-His (Human) (UniProt P15391); assay: on-bead fluorescence binding capacity assay; beads CD19.1-His (1.0 x moles)
CD19.1-Fc (Human) [12] = assay: on-bead fluorescence binding capacity assay; beads CD19.1-Fc (1.0 x moles)
CD19.1-Fc (Human) [13] = assay: on-bead fluorescence binding capacity assay; beads CD19.1-Fc (2.0 x moles)
[14] = molecular target: WT etCD19-His (Acrobiosystems) (Human) (UniProt P15391); assay: on-bead ELISA, HRP-conjugated FMC63 titrated on wtCD19 His coated beads, absorbance at 450 nm, four-parameter logistic fit
CD19.1-Fc (Human) [15] = assay: on-bead fluorescence binding capacity assay; beads CD19.1-Fc (0.5 x moles)
[16] = molecular target: FMC63-scFv-41BBz CAR on Jurkat-Lucia NFAT cells; assay: cell-based or functional assay
CD19 antibody FMC63 [17] = assay: biolayer interferometry, FMC63 immobilized
[18] = molecular target: FMC63-derived anti-CD19 28z CAR on primary T cells; assay: flow cytometry, FITC-labeled protein titrated on anti-CD19 28z CAR primary T cells, four-parameter fit
CD19 antibody FMC63 [19] = assay: biolayer interferometry, FMC63 immobilized; stronger non-specific binding noted

fold binding capacity (functional antigen density) against wtCD19 coated beads (times higher than wtCD19 coated beads) (CD19.1-Fc (Human) [1]): 3.5
% of CD19.1 molecules bound by anti-CD19-FITC (CD19.1-His (Human) [2]): 1.66%
Moles of antibody per mg of beads (mol per mg of beads) (CD19.1-His (Human) [2]): 1.14e-12
Moles of antibody per mg of beads (mol per mg of beads) (CD19.1-Fc (Human) [3]): 4.6e-13
Percentage of CD19.1 or wt CD19 Fc molecules bound by anti-CD19-FITC (FMC63) (CD19.1-Fc (Human) [3]): 1.36%
% of CD19.1 molecules bound by anti-CD19-FITC (CD19.1-His (Human) [4]): 0.8%
Moles of antibody per mg of beads (mol per mg of beads) (CD19.1-His (Human) [4]): 4.9e-13
EC50 (CD19.1-Fc (Human) [5]): 0.59 nM
EC50 (read off the curve) (CD19.1-Fc (Human) [6]): 4 ng/mL
Moles of antibody per mg of beads (mol per mg of beads) [7]: 1.3e-13
Percentage of CD19.1 or wt CD19 Fc molecules bound by anti-CD19-FITC (FMC63) [7]: 0.37%
EC50 (CD19.1-His (Human) [8]): 0.36 nM
% of CD19.1 molecules bound by anti-CD19-FITC (CD19.1-His (Human) [9]): 2.17%
Moles of antibody per mg of beads (mol per mg of beads) (CD19.1-His (Human) [9]): 2e-12
% of CD19.1 molecules bound by anti-CD19-FITC (CD19.1-Fc (Human) [10]): 1.86%
Moles of antibody per mg of beads (mol per mg of beads) (CD19.1-Fc (Human) [10]): 1e-12
% of CD19.1 molecules bound by anti-CD19-FITC (CD19.1-His (Human) [11]): 0.76%
Moles of antibody per mg of beads (mol per mg of beads) (CD19.1-His (Human) [11]): 5.1e-13
% of CD19.1 molecules bound by anti-CD19-FITC (CD19.1-Fc (Human) [12]): 0.87%
Moles of antibody per mg of beads (mol per mg of beads) (CD19.1-Fc (Human) [12]): 4.1e-13
% of CD19.1 molecules bound by anti-CD19-FITC (CD19.1-Fc (Human) [13]): 1.21%
Moles of antibody per mg of beads (mol per mg of beads) (CD19.1-Fc (Human) [13]): 6e-13
EC50 [14]: 0.68 nM
% of CD19.1 molecules bound by anti-CD19-FITC (CD19.1-Fc (Human) [15]): 0.7%
Moles of antibody per mg of beads (mol per mg of beads) (CD19.1-Fc (Human) [15]): 2.8e-13
Substance: CD19 antibody FMC63

maximum stimulation against TransAct at 1:100 dilution (fold stronger than TransAct) [16]: 3.4
Substance: CD19.1 (immobilized on plates or coated on beads; tagged version not stated) (from UniProt P15391 20-291)

Kd (CD19 antibody FMC63 [17]): 0.103 nM
EC50 [18]: 1.9 nM
Substance: CD19.1-Fc (Fc fusion)

Kd (CD19 antibody FMC63 [17]): 3.18 nM
EC50 [18]: 15.8 nM
Substance: CD19.1-His (from UniProt P15391 20-291)

Kd (CD19 antibody FMC63 [19]): 7.18 nM
Substance: WT etCD19-His (Acrobiosystems) (from UniProt P15391 20-291)

Kd (CD19 antibody FMC63 [19]): 3.88 nM
Substance: purchased WT etCD19-His (from UniProt P15391 20-291)
